Assay in all cases: EMSA
Series [1] deals with T1, Replication protein A (RPA heterotrimer) (human, UniProt P27694;P15927;P35244 1-616;1-270;1-121).
Series [2] concerns the target T1, Replication protein A (RPA heterotrimer). This is another data set of the same source.
Series [3] shares this target. The source holds these as a separate data set.
The target is the same in series [4]. This is another data set of the same source.
For series [5] the target is unchanged. The source holds these as a separate data set.

Like-named read-outs stand apart in the source and are kept apart here.

T1 sequence (P27694 whole entry, chain 1 of 3): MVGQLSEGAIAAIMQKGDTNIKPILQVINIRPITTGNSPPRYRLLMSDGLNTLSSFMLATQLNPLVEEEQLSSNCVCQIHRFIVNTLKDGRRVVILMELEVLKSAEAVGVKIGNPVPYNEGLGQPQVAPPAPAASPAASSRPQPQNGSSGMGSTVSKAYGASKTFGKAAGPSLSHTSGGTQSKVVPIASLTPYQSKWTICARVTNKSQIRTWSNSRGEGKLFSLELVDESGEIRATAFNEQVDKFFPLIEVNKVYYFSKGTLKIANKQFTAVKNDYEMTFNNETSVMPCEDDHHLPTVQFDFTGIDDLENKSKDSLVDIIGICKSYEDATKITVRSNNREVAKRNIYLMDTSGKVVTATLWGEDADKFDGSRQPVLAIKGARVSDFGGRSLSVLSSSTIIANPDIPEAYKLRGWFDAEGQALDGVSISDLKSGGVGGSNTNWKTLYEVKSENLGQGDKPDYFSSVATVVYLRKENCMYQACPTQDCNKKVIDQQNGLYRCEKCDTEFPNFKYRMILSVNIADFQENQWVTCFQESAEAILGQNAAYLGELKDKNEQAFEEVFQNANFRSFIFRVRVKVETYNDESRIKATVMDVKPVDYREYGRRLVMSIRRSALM
T1 sequence (P15927 whole entry, chain 2 of 3): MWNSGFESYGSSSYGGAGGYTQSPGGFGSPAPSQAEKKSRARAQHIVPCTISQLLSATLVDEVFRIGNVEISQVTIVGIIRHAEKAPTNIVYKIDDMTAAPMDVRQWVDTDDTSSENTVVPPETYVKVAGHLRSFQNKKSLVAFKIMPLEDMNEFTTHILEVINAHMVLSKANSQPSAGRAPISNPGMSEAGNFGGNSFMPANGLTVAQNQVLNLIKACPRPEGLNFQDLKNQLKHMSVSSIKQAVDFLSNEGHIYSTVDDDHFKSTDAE
T1 sequence (P35244 whole entry, chain 3 of 3): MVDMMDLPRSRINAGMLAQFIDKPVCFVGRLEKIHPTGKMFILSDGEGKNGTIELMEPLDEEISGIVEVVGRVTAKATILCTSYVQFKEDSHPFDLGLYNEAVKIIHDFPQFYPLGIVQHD

B1: RNA no. 5R (24 nt) (ssRNA)
RNA: GAAGCAUUUAUCAGGGUUAUUGUC
For the molecule B1, in series [1], the “apparent K (half saturation)” value worked out at 120 nM.

B2: RNA no. 6R (36 nt) (ssRNA)
RNA: GAAGCAUUUAUCAGGGUUAUUGUCUCAUGAGCGGAU
B2: in series [1], the “apparent K (half saturation)” value turned out to be 65 nM.

B3: RNA no. 501 (ssRNA)
RNA: GAAGCAUUUAUCAGGGUUAUUGUCUCAUGAGCGGAUACAUAUUUGAAU
Regarding B3, the Kd worked out at 0.072 ± 0.0102 nM in series [2] and 0.101 ± 0.017 nM in series [3].

B4: RNA-DNA hybrid nos. 501/212 (DNA:RNA)
RNA: B3 RNA
DNA: ATTCAAATATGTATCCGCTCATGAGACAATAACCCTGATAAATGCTTC
On to B4, for which binding in series [3] was characterised by a dissociation constant (Kd) of 85.9 ± 4.5 nM.

B5: RNA no. 3R (ssRNA)
RNA: AAUGCUUAAUCAGUGAGGCACCUAUCUCAGCGAUCUGUCUAUUUCGUU
B5 registered a dissociation constant Kd in series [4] of 0.1 ± 0.0232 nM.

B6: ssDNA no. 211 (ssDNA)
DNA: GAAGCATTTATCAGGGTTATTGTCTCATGAGCGGATACATATTTGAAT
Regarding B6, the Kd in series [3] was 0.0031 ± 0.0006 nM.

B7: dsDNA nos. 211/212 (dsDNA)
DNA 1: B6 DNA
DNA 2: B4 DNA
In series [3], B7 showed a dissociation constant Kd of 35.5 ± 7 nM.

B8: RNA no. 8R (ssRNA)
RNA: UUUUAAAUCAAUCUAAAGUAUAUAUGAGUAAACUUGGUCUGACAGUUA
For the molecule B8, the Kd in series [5] stood at 0.0629 ± 0.0082 nM.

B9: RNA no. 7R (ssRNA)
RNA: CGUUAAGGGAUUUUGGUCAUGAGAUUAUCAAAAAGGAUCUUCACCUAG
With B9, the Kd in series [5] was 0.248 ± 0.0327 nM.

The record behind these values is publication doi:10.1101/2020.02.11.943977.
